According to the DeepSol protein solubility set:

Test: soluble on expression in E. coli; label from the status in PepcDB or PDB records

Soluble on expression in E. coli, not soluble:
MGSDKIHHHHHHMFHREDFSKALLKKALQPGMRVMDIGCGSGELTRLAADIVGKEGDVVGIDINEQLLWQARHDNGYANVSYQNADLAALSSFETKSFDAIIGRRVLMYQKDPKKVIESLTPLLKPNGFYVFQESDAMCLELAKPSFVNMNKIQSLIWQTVEKEGGHIHIGSQLEQLMLEAGLIVDHFVSENVIQTSQTGTDLSWLLNIMKERIQKYSDLQGLEDVNLQKELEENNDHFIRDCQFGIISHRVDE, MENNPFQRTEKIDISWCPGCGNFAIKASLSNALSKLNLKPQNVAIISGIGQAGKMPHYMFVNGFHTLHGRAIPAATAVKATNPELTVIAEGGDGDMYAEGGNHLIHAIRRNPNITVLIHNNQIYGLTKGQASPTTLVSTKTPTQPWGVFEEPLNPIALAISLNASFVARTFSGNLEKTEEIIIKAINHKGLSIVDIFHPCPSFNKVNTLQWYNENTYFLEDHDVTDRKKAFEKALQTEKYPLGIFYTCEKPVFEEVVPPYISEKTPIWKREPDLEKIEEIINSKRT, MGSDKIHHHHHHMDYLDKLTHLAQVRGEINIRCEFQGEWQISHQEKDAGKGIFHLIEQGECWLTLNEKQFHLKEGDVFFLPQNQPHSMHYSANKRADIPTKKSHQGLFELHQIGRGTPDLKMFCGNFYYQQDALLTASMPEYLHINLCDTPIHPLVQLFLQEAQKNDAGTKSVVDALSNVLLIYILRHAIQQNLIEQGILFALQDKRLNTALIAILQQPQNDWHIEQLAELATMSRANFIRIFQQHIGMSPGRFLTKVRLQSAAFLLKQSQQSVLAIALEVGYQSEAHFCKVFKNYYQLSPSQYRKSVSL, MGSDKIHHHHHHMKILLLNTSDARGGAAVAAMRLMETLQEAGAEVRMLVLNRNTTNPDIMALHSGRCGKTADKYRFLAERLHIYMCNGRDRSRLFHVSTALIGYDVSCHPWVRWADVIHLHWINQGFLSLRGLERLTRCGKSVVWTMHDMWPVTAICHHARECLRYRTECGACPQISSQKEKDLARLVWNRKSRVISLLRPTLIGCSHWLADLARQSALTDGLRIESIPNPIDTNLFAPGSRSDARRIMDLPTDRILLLFGAVQADDPRKGIYELSQAMKRLRERQPDLSKRIALVVFGSLRDEVRSLFPNYKLISIGYIREPSRMAELYRAADLFVIPSLEENLPNTIMEALSVGTPCVAFRVGGIPEMIVSGSTGYLAAFRDPSDLAEGITKTIALQETSPEAVASACRSFVLRHYSREVVSSRMLQLYRELL, MSEWRGFNRKGNTMKIRPGRHNAPDFPHGAAVTIGNFDGVHLGHKHILQKLRLEADARGLPVVAVVFEPQPKEFFALRTGKTPPCRISPLRTKLELLEGTGCVDAAWVLRFDRNFSEISAQAFIDRLLRQTLNTRYLLVGDDFRFGAGREGCFELLAQQPDMQTERTPSVIVEDIRTSSTAVRQALSDGNLAYAKKLLGHDYVLGGRVVHGRKLGRTLNAPTANIRLPGHRYALGGVFVVEADGAFGTRRGVASFGFNPTVDGGCSQKLEVHLFDFQGDLYGQRLNVRFLHKLRDEEKFDGMEELKRRIEADMEAAKCW, MPLQVDDVAERAFVRIVGALRSVRVTSERSQNSLSTFLPVRGRAISEWETGAIQPKLSHLIQWSWELDRRLVIVGRDGELRNDSLRQRPGESWEVFERRRLATPLRNRRQAMGMAQGELADLVGVTRDSIQRWELVRVPPRPIALIVWAQKLG, VTPYEDLLRFVLETGTPKSDRTGTGTRSLFGQQMRYDLSAGFPLLTTKKVHFKSVAYELLWFLRGDSNIGWLHEHGVTIWDEWASDTGELGPIYGVQWRSWPAPSGEHIDQISAALDLLRTDPDSRRIIVSAWNVGEIERMALPPCHAFFQFYVADGRLSCQLYQRSADLFLGVPFNIASYALLTHMMAAQAGLSVGEFIWTGGDCHIYDNHVEQVRLQLSREPRPYPKLLLADRDSIFEYTYEDIVVKNYDPHPAIKAPVAV, MSDEISILIQDRKTGQRRNLTLNINITGNIEDLTKDVEKLTEIPSDELEVVFCGKKLSKSTIMRDLSLTPATQIMLLRPKFNSHNENGATTAKITTDSSILGSFYVWCKNCDDVKRGKLRVYCQKCSSTSVLVKSEPQNWSDVLKSKRIPAVCEECCTPGLFAEFKFKCLACNDPAAALTHVRGNWQMTECCVCDGKEKVIFDLGCNHITCQFCFRDYLLSQLERFGFVNQPPHGFTIFCPYPGCNRVVQDVHHFHIMGQTSYSEYQRKATERLIAVDDKGVTCPNVSCGQSFFWEPYDDDGRSQCPDCFFSFCRKCFERNCVCQSEDDLTRTTIDATTRRCPKCHVATERNGGCAHIHCTSCGMDWCFKCKTEWKEECQWDHWFN, MGSDKIHHHHHHMHIAIMSRNKNLYSTSRLKEAAEARGHVIKIVDPLKCYMNINMNAPSIHVRGEELPKFDAVIPRIGASVTFYGTAVLRQFEMMGTHPLNESVAITRSRDKLRSLQLLSRKNIGLPVTGFASKPADIPDLLDMVGGAPCVIKLLEGTQGIGVVLAETRKAAESVIEAFMGLKANIMVQEYIAEAGGADIRCFVIGDKVIAAMKRQALPGEFRSNLHRGGSASIVKLTPEERSTALRAAKTMGLNVAGVDILRSKHGPLVMEVNSSPGLEGIEKATGIDVAEKIIQFIEKNVKSTSSKTKGVG, KIYSGRILIPLQHILKELKRIRANSLNRRLKTTGNNDELEDMIETLNSMLDRLDSAFKAEKSFVSHASHELNNPITAIQGECEISLLKERSTGEYIEALQRISSESKRISNLIRHLLFLSRQDEELIKSNMEAMSLPDMLNDLIKMNERIRLHYQETGKAAT, MGSDKIHHHHHHMSESEYKIADGSGKFLQAVKDGRRMKDAQWSKGRILLSNKRIVLAGSEGKRNLPLSEVQGLSGRHDVNQTVAKVGNYVSIRMTNESVMLVSLGDNTETFESKLYGALLDQTELQVKHPAVEGGVVTDEQFERARIKVDESELSVAMSNGSFVSVELDDVGSAEAASLEVNGDTKPVLKVEHTVNRDTSVQTYFATDSHTASILESLLTKEAEKSQGSVELSETEKRVLMALYSGVSSFEIPDFLGMDVDEVESIFERLIEVDVLEEVRKRREVTMKTRGRNIASEAINEE, MSLNNDRFAKQRVADDLDEPVEEAGNLARKLGLKPYPVNYWIVDYDEMNELIAYGGFQQRYPHWRWGMQYDRQQKQGQFLGGKAFEIVNNDDPAHAFLQESNTLADQKAVITHVEAHADFFANNEWFRMFTDGSSRTTTDESGEDRRRGPDAAGMLARHGDTIQEYMQDPDIERAEVERFIDHVLCLEDNIDQHIPYSPVETVPEEFEDIEGADVTEQLDDLELSEEVKRQVFDEEWLDAQRDDDENVTFPAEPDKDVLGFLRKHGMQYDADAERATEMEDWQIELLELLRREAYYFAPQKMTKVMNEGWASYWESLMMTGEQFAGDDEFILYSDHMSKVLGSGGLNPYSLGLEIWEYVENTENRREVIERLLRVKGITWRNFDDSVDYEMVQGRESHNDVTFLDEFLTQEFVDDNDYFTYEYTHASGDYRVTSTDHEDVKKKLMLQFTNFGKPTVVVEDGNYQNRNELLLAHQYNGVMLDIGQAKEVLKRTFELWGRPVNLLTIVKEFDDHDVEVAKREGHHHHHH, MSLEYQWGFANISMNYLDWTRSTTHKSGDSSHKDDFAYIELEGGAGYSWGEMYGFFDLENPFNSKTAQPGDNQRYTFKTTGRYYLGDSGFNLYGHIYGTYSLPSAEGNDYSNFHEVNTLYGIGYNATVAGVWMKPFVALHYVDQTYYSGNNGYVVGWVAGYDFTAFDENFSITNWNELEFNRAERYAAGNGGRNGVNGALALWWTPIKQFTTGIQYRYAYNKLGEDFLQDGIVYSIKYNFEGHHHHHH, MFCSFFHEKKKNILRLNIRCQRLREHDNTAKIELFKSMRRRRSSTKASRKTTMGGAAELEDEWIPSETMSGAGWKARGDRKPKDKRVPFNRPTPYQIYEALPFVRRYFMYWMKHTFDKEKLFINTFQPLKHKPYYGVPCGGIGCGAIGRDFRGGFCKFSLRPGLVEHKVDVVAADQFILSVRENDRCIYQKVLSAADVQRPSGQLSTWDFKFPKKNVHYRGLFPRSWTTFRVPELELTVVIRQVSPVLPHNYEDTTYPVCLFLIDVENGGSASREYEISVAFTFRNGTGNRRWEREAECSGVKFETEEEGLKPTTTAQEKISGVSLYHTISSMPCTYGLATTHREHTTTTVCERFDPSRNGAALWNHLKQTGDVPSCEEECLINAREMAVAVCNRFTLPPNSTKTHDYALSWDMPKVHFGSVARSYHRRYTRFFEASEAGSAADSLCVRALRLKDKWESEIEAWQSPILNHKKLPDWYKSAIFNELYFITDGGTVWFEFDENWAEHETHLSHYTKDKMKEIGRFGYLESWEYRMVNTYDVHFYASFALAELWPELEITIQSEFTDQVYHSIEKPTRFHMEGDWANVKTASRVPHDLGNPADEPWIATNAYVMHDTGKWKDLNMKYVLTSWRDYVVLSNEHEDFLFHTWPAVRMIMLEALENWDQDGDGMIENFGKADQTYDAWQMEGVSAYCGSLWLASLRVAIEMAGLMKDDETQQLFRNTLEKAKKVFIDTLWTGTYFRFCERSRSRETVMADQLCGYWFLQSVSPELADELLPNHMVRSALDTIYRLNVCKFGNGRMGAVNGMKPSGVVDREYIQADEMWTGVTYAVASLLIQQGEVEKAFHTASGSYLTCFEETGLQYQTPEALYESKFYRAIGYMRPLSIWAMQWSLKKHCGMNTSEEKLPNLVKNEKVVPESEAAIQVQKQRILGDTSEDGSSLGYVSDYHDERSIPKIATLR

Soluble on expression in E. coli, soluble:
MAVAANKRSVMTLFSGPTDIYSHQVRIVLAEKGVSFEIEHVEKDNPPQDLIDLNPNQSVPTLVDRELTLWESRIIMEYLDERFPHPPLMPVYPVARGESRLYMHRIEKDWYTLMNTIINGSASEADAARKQLREELLAIAPVFGQKPYFLSDEFSLVDCYLAPLLWRLPQLGIEFSGPGAKELKGYMTRVFERDSFLASLTEAEREMRLGRS, MLERIANIQKKLSKSIVERKINEVRKVAAVDVSYKEEKARAALVITTFPEGEVLKTKVIETTVSFPYIPTFFFLRETKPILIATKGETFDVLIVEGHGKAHPRGYGLASHIGVVLRKPTIGVAKRLLKNTPKDTYKKVGKVYVSVGNLITLEDATKIIRAILDESGYPKPLKLADKLSKGRIYEVKNTPSPNRSRKKRGNRGKDNNNSQGNLEHHHHHH, MGSDKIHHHHHHENLYFQGMNTIDIAKSYITAIQTGDHATLGSIISPDVIWHQPGNHQFSGTHRGMAVVGPMLGKMMEVSNGTFAISRADDYMASGDWVAITLEFSGQANGVTLKQAGVDLLRIEDGKIVEVRLFSADQTQEDAFWGR, MSLRGESSGLMAYKAEDIYFTLFNGLHGSAHGHASTGGFTLQLQGDDLFSDSGRYSYVNKSERLQLKECASHNTMFIAENPHTLVSDTWGYDKLPTPLFQQIKELSVGFFAECGWLDKADQNPMIFERSFIYLKSINSVVIIDSFAGQKETEITSTYNLAPSINCQKEAHRFALTTNKHKYTLLFAGGQTQQSVAKGSEIYNQLNEHPRLSNKFCYKTGKEIQATVISPLEDIQITPIKVSQTGENEQFCQAKGFRIIAGSEKFDLFVMREDIVKGNKLLVSEYGQFFYGRLVLIDQKEAKIRIKEGHHHHHH, MSLKRLNCRRKGIRVRILAIDTSNQTLSIAVCENQKILGSYTATVKRNHSLTLMPAIDYLMSQLNLAPTAIDRFVVAEGPGSYTGLRLGVTTAKTLAYTLKKELVGISSLQTLAANCVGQTGLIVPLFDARRKNVYAGAYRFVNGVWQNELPDQHISLRELLEQLKNEPNLFFVGEDVEKFTEEIAQIIPHGEICDVPQWQIPNAAVLAALGSVAEPVENVHGFLPAYLKKVEAEENWLKTHTPNGESYVEKLEGHHHHHH, DVQLQQSGPGLVAPSQSLSITCTVSGFSLTDYGVNWVRQSPGKGLEWLGVIWGDGITDYNSALKSRLSVTKDNSKSQVFLKMNSLQSGDSARYYCVTGLFDYWGQGTTLTVSSASGADHHHHHH
